Earlier results on one substance are cited in article PMC3899951.

Series [1] deals with histone H4 singly acetylated peptide (Homo sapiens) (UniProt P62805).
Series [2] deals with histone H4 K5,8,12,16ac peptide (Homo sapiens) (UniProt P62805).

Broadly, the Kd is the equilibrium constant for the complex coming apart. For “TAFII250 tandem bromodomain (from UniProt P21675)”, the Kd was 39 µM in series [1] and 5 µM in series [2].
